# Source: PMC9371972, “Cryo-EM structure of the human CST–Polα/primase complex in a recruitment state” (Nature Structural & Molecular Biology, 2022)
# T1: His6-MBP-CTC1–STN1–TEN1 (human, UniProt Q2NKJ3 1-1217; Q9H668 1-368; Q86WV5 1-123, RED-tris-NTA second-generation dye on the His6 tag)
# T1 chain 1: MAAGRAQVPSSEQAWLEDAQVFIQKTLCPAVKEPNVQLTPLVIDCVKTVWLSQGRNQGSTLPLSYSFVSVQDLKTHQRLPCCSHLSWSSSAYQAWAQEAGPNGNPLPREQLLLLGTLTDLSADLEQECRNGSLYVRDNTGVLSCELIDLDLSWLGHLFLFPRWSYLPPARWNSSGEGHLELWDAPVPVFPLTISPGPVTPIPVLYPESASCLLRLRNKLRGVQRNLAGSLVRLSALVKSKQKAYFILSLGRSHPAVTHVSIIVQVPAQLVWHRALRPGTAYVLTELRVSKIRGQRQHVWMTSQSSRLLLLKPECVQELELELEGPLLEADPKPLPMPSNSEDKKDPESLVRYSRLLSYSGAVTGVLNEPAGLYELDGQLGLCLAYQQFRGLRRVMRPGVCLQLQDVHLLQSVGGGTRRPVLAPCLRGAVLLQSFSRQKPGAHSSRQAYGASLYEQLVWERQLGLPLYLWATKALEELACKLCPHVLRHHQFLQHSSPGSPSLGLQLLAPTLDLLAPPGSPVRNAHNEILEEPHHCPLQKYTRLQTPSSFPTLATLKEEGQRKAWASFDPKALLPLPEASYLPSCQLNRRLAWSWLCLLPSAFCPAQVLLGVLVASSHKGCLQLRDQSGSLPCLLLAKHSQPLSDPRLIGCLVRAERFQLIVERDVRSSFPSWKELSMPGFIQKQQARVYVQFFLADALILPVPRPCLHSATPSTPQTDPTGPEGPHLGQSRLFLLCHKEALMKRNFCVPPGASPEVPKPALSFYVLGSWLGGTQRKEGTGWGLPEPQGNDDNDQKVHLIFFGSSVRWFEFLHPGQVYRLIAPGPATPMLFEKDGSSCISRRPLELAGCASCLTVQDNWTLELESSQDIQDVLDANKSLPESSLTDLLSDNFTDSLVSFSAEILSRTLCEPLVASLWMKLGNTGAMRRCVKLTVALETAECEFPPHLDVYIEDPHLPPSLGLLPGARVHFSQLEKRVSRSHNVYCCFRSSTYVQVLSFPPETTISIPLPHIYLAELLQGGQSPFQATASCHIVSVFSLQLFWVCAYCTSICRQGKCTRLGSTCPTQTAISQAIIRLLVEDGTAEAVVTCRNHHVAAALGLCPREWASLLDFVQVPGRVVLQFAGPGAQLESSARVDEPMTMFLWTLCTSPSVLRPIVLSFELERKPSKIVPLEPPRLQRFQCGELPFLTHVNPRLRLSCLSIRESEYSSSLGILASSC
# T1 chain 2: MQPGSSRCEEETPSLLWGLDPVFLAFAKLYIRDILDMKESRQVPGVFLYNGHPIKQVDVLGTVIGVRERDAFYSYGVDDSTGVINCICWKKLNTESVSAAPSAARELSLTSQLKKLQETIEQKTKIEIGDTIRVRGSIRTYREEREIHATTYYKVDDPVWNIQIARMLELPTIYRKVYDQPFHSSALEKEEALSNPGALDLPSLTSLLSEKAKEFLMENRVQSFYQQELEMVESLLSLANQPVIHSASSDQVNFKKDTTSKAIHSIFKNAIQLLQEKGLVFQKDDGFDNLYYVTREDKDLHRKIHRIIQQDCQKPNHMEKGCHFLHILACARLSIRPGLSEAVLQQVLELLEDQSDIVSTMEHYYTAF
# T1 chain 3: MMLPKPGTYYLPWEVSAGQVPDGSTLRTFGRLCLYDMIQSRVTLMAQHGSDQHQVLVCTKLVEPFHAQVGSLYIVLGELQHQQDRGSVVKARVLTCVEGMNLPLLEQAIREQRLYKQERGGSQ
# B1: POLA1^CTD with the CRL swapped for the S. pombe short loop (domain or fragment, human | S. pombe)
# chain: AQLTDEEKYRDCERFKCPCPTCGTENIYDNVFDGSGTDMEPSLYRCSNIDCKASPLTFTVQLSNKLIMDIRRFIKKYYDGWLICEEPTCRNRTRHLPLQFSRTGPLCPACMKATLQPEYSDKSLYTQLCFYRYIFQTTTGATKVLQDYRKLKNTAEQFLSRSGYSEVNLSKLFAGCAVKS
# notes: short loop of the S. pombe POLA1 orthologue, in place of the human CRL (residues 1400-1424); also called CRL^(S. pombe); source: E. coli Rosetta(DE3), purified (Ni-NTA, Ulp1 cleavage, reverse Ni-NTA, SEC); not shown: His6, N-terminal, cleaved; Smt3, N-terminal, cleaved
# B2: POLA1^CTD with the wild-type CRL (domain or fragment, human, UniProt P09884 1265-1462, looked up)
# chain: AQLTDEEKYRDCERFKCPCPTCGTENIYDNVFDGSGTDMEPSLYRCSNIDCKASPLTFTVQLSNKLIMDIRRFIKKYYDGWLICEEPTCRNRTRHLPLQFSRTGPLCPACMKATLQPEYSDKSLYTQLCFYRYIFDAECALEKLTTDHEKDKLKKQFFTPKVLQDYRKLKNTAEQFLSRSGYSEVNLSKLFAGCAVKS
# notes: also called CRL^WT; source: E. coli Rosetta(DE3), purified (Ni-NTA, Ulp1 cleavage, reverse Ni-NTA, SEC); not shown: His6, N-terminal, cleaved; Smt3, N-terminal, cleaved
# B3: POLA1^CTD with the CRL swapped for a GGSGGS-linker (domain or fragment, human)
# chain: AQLTDEEKYRDCERFKCPCPTCGTENIYDNVFDGSGTDMEPSLYRCSNIDCKASPLTFTVQLSNKLIMDIRRFIKKYYDGWLICEEPTCRNRTRHLPLQFSRTGPLCPACMKATLQPEYSDKSLYTQLCFYRYIFDAEGGSGGSTPKVLQDYRKLKNTAEQFLSRSGYSEVNLSKLFAGCAVKS
# notes: linker in place of the CRL (residues 1403-1422); also called CRL^GGSGGS; source: E. coli Rosetta(DE3), purified (Ni-NTA, Ulp1 cleavage, reverse Ni-NTA, SEC); not shown: His6, N-terminal, cleaved; Smt3, N-terminal, cleaved
# B4: CTC1–STN1–TEN1 (CST) complex (complex, human)
# chain 1: T1 chain 1
# chain 2: T1 chain 2
# chain 3: T1 chain 3
# notes: human CTC1; human STN1; human TEN1; Expressed from pBIG1a(His6-MBP-PreSc-CTC1/STN1/TEN1); tag removed with rhinovirus 3C protease; source: Tni insect cells (baculovirus), purified (Ni-NTA, 3C protease cleavage, heparin, SEC); not shown: His6, N-terminal, cleaved; MBP, N-terminal, cleaved; copies: + +
# How the values were obtained:
# [1] = target: CTC1–STN1–TEN1 (CST) complex (human) (UniProt Q2NKJ3); assay: cryo-EM structure; CST and Polα/primase (PP^FL or PP^ΔN) mixed equimolar (1.5 μM each) with (GGTTAG)3 ssDNA, cross-linked by GraFix (glutaraldehyde, glycerol gradient), 20 mM HEPES pH 7.5, 150 mM NaCl, 10 mM MgCl2, 0.5 mM TCEP
# His6-MBP-CTC1–STN1–TEN1 [2] = target: T1, His6-MBP-CTC1–STN1–TEN1; assay: MST; binding event 2 (second site), independent experiment 3
# His6-MBP-CTC1–STN1–TEN1 [3] = target: T1, His6-MBP-CTC1–STN1–TEN1; assay: MST; binding event 2 (second site), independent experiment 2
# His6-MBP-CTC1–STN1–TEN1 [4] = target: T1, His6-MBP-CTC1–STN1–TEN1; assay: MST; binding event 2 (second site), independent experiment 1
# His6-MBP-CTC1–STN1–TEN1 [5] = target: T2, His6-MBP-CTC1–STN1–TEN1 (human, UniProt Q2NKJ3 1-1217; Q9H668 1-368; Q86WV5 1-123, RED-tris-NTA second-generation dye on the His6 tag); assay: MST; 50 nM RED-tris-NTA-labeled His6-MBP-CST with serial dilutions of unlabeled POLA1^CTD constructs; room temperature; 20 mM HEPES pH 7.5, 150 mM NaCl, 5 mM DTT, 0.05% Tween-20; CRL^WT data split into two binding events; settings: both partners purified
# T2 construct: human CTC1; human STN1; human TEN1; A PreScission site lies between MBP and CTC1; also called His6-MBP-CST; fluorescently labeled CST; source: Tni insect cells (baculovirus), purified (Ni-NTA, heparin, SEC; protease-cleavage step omitted); not shown: His6, N-terminal, kept; MBP, N-terminal, kept; copies: + +
# His6-MBP-CTC1–STN1–TEN1 [6] = target: T1, His6-MBP-CTC1–STN1–TEN1; assay: MST; binding event 1, independent experiment 2
# His6-MBP-CTC1–STN1–TEN1 [7] = target: T1, His6-MBP-CTC1–STN1–TEN1; assay: MST; binding event 1, independent experiment 1
# His6-MBP-CTC1–STN1–TEN1 [8] = target: T1, His6-MBP-CTC1–STN1–TEN1; assay: MST; binding event 1, independent experiment 3
# [9] = target: T3, full-length Polα/primase (POLA1^FL/POLA2/PRIM1/PRIM2) (human, UniProt P09884 1-1462; Q14181 1-598; P49642 1-420; P49643 1-509); assay: SEC; purified proteins mixed (PP^FL and CST equimolar; CST with twofold molar excess of His6-MBP-POLA1^N), 1 h at 4 °C, HiLoad Superdex 200 16/600 PG, 20 mM HEPES pH 7.5, 150 mM NaCl, 0.5 mM TCEP, 5% glycerol; settings: both partners purified
# T3 construct: human POLA2; human PRIM1; human PRIM2; The methods describe no tag cleavage for this complex (PreSc site after MBP, TEV site after StrepII); also called PP^FL; DNA polymerase α–primase; source: Tni insect cells (baculovirus), purified (Ni-NTA, RESOURCE Q, SEC); copies: + + +
# T3 sequence (Q14181 whole entry, chain 2 of 3): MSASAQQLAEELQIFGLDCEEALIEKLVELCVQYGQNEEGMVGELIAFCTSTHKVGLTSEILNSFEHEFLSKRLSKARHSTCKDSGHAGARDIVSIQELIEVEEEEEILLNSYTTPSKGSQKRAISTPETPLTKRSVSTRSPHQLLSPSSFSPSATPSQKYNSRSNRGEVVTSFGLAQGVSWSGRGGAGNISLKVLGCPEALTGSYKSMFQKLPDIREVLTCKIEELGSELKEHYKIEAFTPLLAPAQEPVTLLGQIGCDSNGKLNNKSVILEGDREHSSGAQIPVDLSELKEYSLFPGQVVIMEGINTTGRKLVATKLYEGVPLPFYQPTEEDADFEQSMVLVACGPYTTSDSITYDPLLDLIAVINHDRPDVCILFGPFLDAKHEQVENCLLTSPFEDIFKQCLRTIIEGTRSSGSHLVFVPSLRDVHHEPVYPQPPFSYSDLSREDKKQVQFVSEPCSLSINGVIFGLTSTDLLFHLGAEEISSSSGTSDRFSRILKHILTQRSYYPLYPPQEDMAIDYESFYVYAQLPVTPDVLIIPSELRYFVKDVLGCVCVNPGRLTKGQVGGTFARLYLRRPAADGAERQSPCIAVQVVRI
# T3 sequence (P49642 whole entry, chain 3 of 3): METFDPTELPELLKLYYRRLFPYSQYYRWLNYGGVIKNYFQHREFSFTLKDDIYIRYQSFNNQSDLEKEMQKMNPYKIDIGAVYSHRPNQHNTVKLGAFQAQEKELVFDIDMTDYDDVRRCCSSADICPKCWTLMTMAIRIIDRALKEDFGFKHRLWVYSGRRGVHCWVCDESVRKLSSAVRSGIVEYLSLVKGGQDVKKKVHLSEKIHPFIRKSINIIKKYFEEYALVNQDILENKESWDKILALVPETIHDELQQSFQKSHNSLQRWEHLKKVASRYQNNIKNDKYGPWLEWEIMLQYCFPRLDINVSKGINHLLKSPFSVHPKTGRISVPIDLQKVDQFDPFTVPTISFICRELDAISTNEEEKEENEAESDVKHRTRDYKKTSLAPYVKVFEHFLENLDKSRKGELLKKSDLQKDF
# T3 sequence (P49643 whole entry, chain 4 of 3): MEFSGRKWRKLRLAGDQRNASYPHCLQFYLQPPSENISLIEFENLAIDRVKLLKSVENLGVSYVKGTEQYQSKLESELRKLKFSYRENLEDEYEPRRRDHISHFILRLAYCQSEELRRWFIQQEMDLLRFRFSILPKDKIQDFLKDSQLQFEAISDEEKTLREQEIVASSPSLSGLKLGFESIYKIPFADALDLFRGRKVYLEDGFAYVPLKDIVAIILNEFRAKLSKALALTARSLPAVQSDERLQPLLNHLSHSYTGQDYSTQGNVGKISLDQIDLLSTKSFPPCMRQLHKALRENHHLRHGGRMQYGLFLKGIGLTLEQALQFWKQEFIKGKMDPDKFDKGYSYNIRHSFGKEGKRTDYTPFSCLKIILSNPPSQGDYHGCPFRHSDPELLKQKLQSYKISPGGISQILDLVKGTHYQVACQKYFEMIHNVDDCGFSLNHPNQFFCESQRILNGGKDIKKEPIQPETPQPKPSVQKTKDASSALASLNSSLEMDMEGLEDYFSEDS
Molecule,stoichiometry N [1],Kd (His6-MBP-CTC1–STN1–TEN1 [2]) [µM],Kd (His6-MBP-CTC1–STN1–TEN1 [3]) [µM],Kd (His6-MBP-CTC1–STN1–TEN1 [4]) [µM],KD of binding event 2 (His6-MBP-CTC1–STN1–TEN1 [5]) [µM],Kd (His6-MBP-CTC1–STN1–TEN1 [6]) [µM],Kd (His6-MBP-CTC1–STN1–TEN1 [7]) [µM],KD of binding event 1 (His6-MBP-CTC1–STN1–TEN1 [5]) [µM],Kd (His6-MBP-CTC1–STN1–TEN1 [8]) [µM],binding result [9]
"full-length Polα/primase (POLA1^FL/POLA2/PRIM1/PRIM2), P09884 1-1462; Q14181 1-598; P49642 1-420; P49643 1-509",1,,,,,,,,,
B1,,77,75,134,~88,,,,,
B2,,156,216,56,~122,13,1.4,~3.3,14,
B3,,82,79,133,~96,,,,,
B4,,,,,,,,,,binds
